In the nanobody polyreactivity screen of Harvey et al. (2022):

assay: yeast display, Sf9 membrane polyspecificity reagent, FACS + sequencing; frameworks hold sequencing errors
Summary of the method: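 A nanobody's polyreactivity label depends on the gate it was sorted from. Yeast display cells were stained with 10% biotinylated, detergent-solubilized Sf9 membrane reagent for 1 hour at 4 °C, enriched on streptavidin microbeads and sorted by FACS. The low and high (top ~1%) gates were set on anti-HA fluorescence for expression and streptavidin fluorescence for reagent binding.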

Q: With “QVQLVETVGGLVQAGGSLRLTCAASGFTIYYNAMGWYRQAPGKERELVASISSNGTSTYYADSVKGRFTISRDNAKNTVYLQMNSLKPEDTAVYYCNVDIFDPRTYDYWGQGTQVTVSS” as the sequence, how does the “polyreactivity (PSR sort gate)” value read?
A: The value was “low polyreactivity”.

Q: Which “polyreactivity (PSR sort gate)” value does the source give for “QVQLVETVVGLVQAGGSLRLSCAASGSIFGFYDMGWYRQAPGKERELVAVISVSDGSTYYADSVKGRFTISRDNAKNTVYLQMNSLKAEDTAVYYCAATPRGSYGYYYWGQGTQVTVSS” here?
A: Its value is “low polyreactivity”.

Q: Which “polyreactivity (PSR sort gate)” value does the source give for “QVQLVGSGGGLVQAGGSLRLSCAASGIIFQLYAMGWYRQAPGKERELVAAITSTGTTNYADSVKGRFTISRDNAKNTVYLQMNCLKPEDTAVYYCNADVGYWWGYYGYDYWGQGTQVTVSS” here?
A: The value was “high polyreactivity”.

Q: For “QVQLVGVRGRLVQAGGSLRLSCAASGRTIYAYAMGWNRQAPRKERELVATITSGGSTNYADSVKGRFTISRDNAMNTFYLLMNSLKPEDTAVYYCGAGPRGYKKYDYWGHGTQVTVSS”, which “polyreactivity (PSR sort gate)” value is on record?
A: Its value is “low polyreactivity”.

Q: For “QVQLVHSGGGLVQAGGSLRLSCAASGITIWYYAMGWYRQAPGKERELVAAISWRGGSTYYADSVKGRFTISRDYAKNTVNLQMNSLKPEATAVYYCAAGYSLLYTYEYWGQGTQVTVSS”, which “polyreactivity (PSR sort gate)” value is on record?
A: Its value is “high polyreactivity”.

Q: Which “polyreactivity (PSR sort gate)” value does the source give for “QVQLVKSGGGLVQAGGSLRLSCAASGFIIPEYTMGWYRQAPGKERELVAAISGSGGSTYYADSVKGRFTISRDNAKNTVYLQMNSLKPEDTAVYYCAASYAVSRYLQTYAHAHGYWGQGTQVTVSS” here?
A: The value was “low polyreactivity”.

Q: Which “polyreactivity (PSR sort gate)” value does the source give for “QVQLVKSGGGLVQAGGSLRVSCAATGRIYTDNAMGWYRQATGKERELVAGMSSSGGRTYYADSVKGRFTISRDNAKNSVFFQMNSLLTEATAVYYCAAANSRRDGRYYWGQGTQVSVSS” here?
A: The value was “high polyreactivity”.

Q: With “QVQLVQSAAGLVHAGGSLRLSCAASGIIFYGYAMVSYRQAPGKERELVAAITSYDGSTYYADSVKGRFTISRDNAKNTVYLQMNSLKPEDTAEYYCAADYSTYEGWYWFDYWGQGSQVTVSS” as the sequence, how does the “polyreactivity (PSR sort gate)” value read?
A: Its value is “high polyreactivity”.

Q: Which “polyreactivity (PSR sort gate)” value does the source give for “QVQLVQSCGGLVQAGGSLRLSCATSGFTFPLYAMGWYRQAPGKERELVAAISSGSSTYYADSVKGRFTISRDNAKNTVYLQMNSLKPEDTAVYYCAAQKRGSPGYRRDYWGQGTQVTVSS” here?
A: The value was “high polyreactivity”.

Q: For “QVQLVQSGGCLVQAGGSLRLSCSASGSIFVHHDMGWYRQAPGKERELVAAISWGGGRTYYADSVKGRFTISRDNAKNTVYLQMNSLKPEDTAVYYCAVDGGEFSSYGYWGQGTQVTVSS”, which “polyreactivity (PSR sort gate)” value is on record?
A: Its value is “low polyreactivity”.

Q: Which “polyreactivity (PSR sort gate)” value does the source give for “QVQLVQSGGGLVHAGGSLRLSCAGSGSIFGTNAMGWYRQAPGKERELVATITSAGSTYYADSVKGRFTISRDYAKITFYLQMNSLKPEDTAVYYCARQATGYVYREYDYWGQGTQVSVSS” here?
A: The value was “low polyreactivity”.

Q: With “QVQLVQSGGGLVQAGGILRLSCAASVSTLFGYAMGWYRQAPGKERELVAAINTGGSTNDADSVKGRFTISRDNAKNTVYVQMNSLKPEDTAVYYCAADYEWDAFAYDYWGHGTQVTVSS” as the sequence, how does the “polyreactivity (PSR sort gate)” value read?
A: The value was “low polyreactivity”.

Q: For “QVQLVQSGGGLVQAGGRLRLSCAASGRIFYYYTMGWYRQAPGKERELVAVISRSGDRTYYADSVKGRFTISRDIAKNTVYLQMNSLKPEDTAVYYCATRWSSARMDYCGQGTQVTVSS”, which “polyreactivity (PSR sort gate)” value is on record?
A: The value was “high polyreactivity”.

Q: With “QVQLVQSGGGLVQAGGSHRLSCAASGSTFKPYALGWYRQSPGKETELVAASSRGTRTYADSVKGRFTISRDNAKNTVYLQMNSVKPEDTAVYYCAAEWRLTFGYHYEFDYWGQGTQVTVSS” as the sequence, how does the “polyreactivity (PSR sort gate)” value read?
A: The value was “low polyreactivity”.

Q: For “QVQLVQSGGGLVQAGGSLRLSCAASGFTFIRYAMGWYRQAPGKERELVAAIRGTGTSTYYADSVKGRFTISRDIAKNTVYLQMNSLKPEDTAVYYCNAGTYYRSYGYDYWGQGTQVTVSS”, which “polyreactivity (PSR sort gate)” value is on record?
A: Its value is “low polyreactivity”.

Q: Which “polyreactivity (PSR sort gate)” value does the source give for “QVQLVQSGGGLVQAGGSLRLSCAASGRIFRTYAMGWYRQAPGKERELVAAISSRSGSTYYADSVKGRFTISRDNAKNTVYLQMQSLKPEDTAVYYCASRYGYRYADKGSEYGYWGQGTLVTVSS” here?
A: Its value is “high polyreactivity”.

Q: For “QVQLVQSGGGLVQAGGSLRLSCAASGSIFTPNAMGWYRQAPGKERELVAAISGRTGTTYYADSVKGRFTISRDNAKNTVYLQMHSLKPEDTAVYYCAKSSGRYRSDYRGQGTQVTVSS”, which “polyreactivity (PSR sort gate)” value is on record?
A: The value was “high polyreactivity”.

Q: Which “polyreactivity (PSR sort gate)” value does the source give for “QVQLVQSGGGLVQAGGSLRLSCAASGSTFARNAMGWYRQAPGKERELVAAISSSGGRTYYADSVKGRFTISRDHAKNSVYLQMNSLKPEYTEVYYCAAAFSLGMYWGQGTQGTVSS” here?
A: Its value is “high polyreactivity”.

Q: Which “polyreactivity (PSR sort gate)” value does the source give for “QVQLVQSGGGLVQAGGSLRLSCAASGSTFPTNAMGWYRQAPGKERELVAAITSTGSTYADSVKGRFTISRDNAKNTVYLQMNSLKPEDTAVYYCAADTQWTTPYDYWGQGTQVTVSS” here?
A: The value was “low polyreactivity”.

Q: Which “polyreactivity (PSR sort gate)” value does the source give for “QVQLVQSGGGLVQAGGSLRLSCAASGSTFRRKVMGWYRQAPGKETELVAAISWSGTSTNYADSEKGRFTISRDNAKNTVYLQMNSVKPEDTAVYYCATQSLYYRWGLDYWGQGTEVTVSS” here?
A: Its value is “high polyreactivity”.

Q: With “QVQLVQSGGGLVQAGGSLRLSCAASGSTFTPNDMGWYRQAPGKERELVAAIDWSGGSTYYADSVKGRFTISRDNAKNTVYLQMNSLKPEDTAVYYYNADSSKFYSHGEYEYWGQGTQVTVSS” as the sequence, how does the “polyreactivity (PSR sort gate)” value read?
A: Its value is “low polyreactivity”.

Q: For “QVQLVQSGGGLVQAGGSLRLSCAASGSTIVTNAMGWYRQAPGKERELVAANTSVGSTYYADSVKGRFTISRDNAKNTVYLQMNSLKPEDTAVYYCNVVYRDQYNYWGQGTQVTVSS”, which “polyreactivity (PSR sort gate)” value is on record?
A: The value was “low polyreactivity”.

Q: Which “polyreactivity (PSR sort gate)” value does the source give for “QVQLVQSGGGLVQAGGSLRLSCAASGTTFNRNAMGWYRQAPGKEMELVDTITSAGSTYYADSVKGRFTISLDNAKNTVYLHMNSLKPEDTAVYYCAKGHQPGHVFHQEYGYYYWGQGTQGTVSS” here?
A: Its value is “low polyreactivity”.

Q: For “QVQLVQSGGGLVQAGGSLRLSCADSGSIFEYYTMGWYRQAPGKERELVAAISDGGSTYYADSVKGRFTISRDNAKNTVYLQMYSLKPEDTAVYYCAAEYQQDFWVAVDYWGQGTQVSVSS”, which “polyreactivity (PSR sort gate)” value is on record?
A: Its value is “low polyreactivity”.

Q: With “QVQLVQSGGGLVQAGGSLRLSCAGSGYILQINAMGWYRQAPGKERELVAAISISGGNTYYADSVKGRFTNSRDNAKNTVYLQMNSLKPEDSAVYYCAAYRFYSYLVRYGLLLAYYYWGQGTQVTVSS” as the sequence, how does the “polyreactivity (PSR sort gate)” value read?
A: The value was “low polyreactivity”.

Q: Which “polyreactivity (PSR sort gate)” value does the source give for “QVQLVQSGGGLVQAGGSLRLTCAASGRTFVVYAMGWYRQAPGKERQLVASISSIGEITNYADSVKGRFTISRDYAKNTVYLQMNSLKQEDTAVYYCTAPICGSYNTRRAAEYDYWGQGTQVTVSS” here?
A: Its value is “low polyreactivity”.

Q: With “QVQLVQSGGGLVQAVGSLRLICADSGSIFVPNAMGWYRQALGKERELVAAITYSGVDTYYADSVKGRFTISRDNAKNSVYLQMNSLKPEDTAVYYCAADNGRVGYDYWGLGTQVTVSS” as the sequence, how does the “polyreactivity (PSR sort gate)” value read?
A: Its value is “low polyreactivity”.

Q: With “QVQLVQSGGGLVQAVGSLRLSCAASGRTFPYYTMGWYRQARGKERELVAAINSSGGRTYYADSVKGRFTISRDNAKNTVYLQMNSLKPEDTAVYYCAKRGYYKYDWGQGTQVTVSS” as the sequence, how does the “polyreactivity (PSR sort gate)” value read?
A: The value was “high polyreactivity”.

Q: Which “polyreactivity (PSR sort gate)” value does the source give for “QVQLVQSVVGLVQAGRRLRLSSAASGRIFFYNAMGWYRHAPGKERELVAGISRSGTSTYYADSVKGRFTISRDNAKNTVYLHMNSLKPEDTAVYYCAAGTFYYWLSYDYWGQGTQVTVSS” here?
A: Its value is “low polyreactivity”.

Q: Which “polyreactivity (PSR sort gate)” value does the source give for “QVQLVQTGGGLVQAGGSLRLSCAASGSTFWYNAMGWSRQAPGKERELVARISYSGGSTYYADSVKGRFTISRDNAKNTVYLQMNCLKPEDTAVEYCAGRRPYKYDYWGQGTQVTVSS” here?
A: Its value is “high polyreactivity”.

Q: With “QVQLVVSGGGLDQARGSLRLSCAASGSNFFYYAMGWYRQAPWKERELVAGINWSGGSTYADSVKGRFTISRDNAKNTVYLQMNSLKPEDTAVYYCAAKFYSERSSYHYWGQGTQVTVSS” as the sequence, how does the “polyreactivity (PSR sort gate)” value read?
A: The value was “low polyreactivity”.

Q: For “QVQLVVSGGGLVQAGGRLRLSCAASGFTFRRNARGWYRQAPGKVWELVAGITSSGTSTYYADSVKGRFTISRDNAKNTVNLQMNSLKPEDTAVYYCNADTPRTGGYWGQGTQVTVSS”, which “polyreactivity (PSR sort gate)” value is on record?
A: Its value is “high polyreactivity”.

Q: With “QVQLVVSGGGLVQAGGRLRLSCAATGSTFSVNAMGWSRQAPGKERELVAAITRSGGSTYYADSVKGRFTFSRDNAKNSVYLQLNSLKPEDTAVYYCAAEIYPLGEYWGQGTQVTVSS” as the sequence, how does the “polyreactivity (PSR sort gate)” value read?
A: The value was “low polyreactivity”.

Q: With “QVQLVVSGGGLVQAGGSLRLSCAASGGTFQHNTMGWYRQAPGKERELVAAIRWSDGSTYYADSVKGRFTISRDNAKTTVYLQMNSLKPEDTSVYYCNRAYTASYIPRVGFWGQGTQVTVSS” as the sequence, how does the “polyreactivity (PSR sort gate)” value read?
A: Its value is “high polyreactivity”.

Q: With “QVQLVVSGGGLVQAGGSLRLSCAASGRIFRAYAMGWYRQAPGQERELVADITSGSGSTYYADSVKGRFTISRDNAKNTVYLQMNSLKPEDTAVYYCAADVFIRDWEYYYWGQGTQVTVSS” as the sequence, how does the “polyreactivity (PSR sort gate)” value read?
A: The value was “low polyreactivity”.

Q: For “QVQLVVSGGGLVQAGGSLRLSCAASGRIFVYNAMGWYRQAPGKERELVATITSGGSTYYADSVKGRFTISRDNAKNTVYLQMNSLKPEDTAVYYCAARRWYVHYFAYGYWGQGTQVTVSS”, which “polyreactivity (PSR sort gate)” value is on record?
A: The value was “low polyreactivity”.

Q: Which “polyreactivity (PSR sort gate)” value does the source give for “QVQLVVSGGGLVQAGGSLRLSCAASGRTFPRYAMGWYRQAPGKERELVASISRRGGSTYYADSVKGRFTISRDNAKNTVYLQMNSLKPEDTAVYYCNAQGYPYKQSTGDFWGQGTQVTVSS” here?
A: Its value is “high polyreactivity”.

Q: Which “polyreactivity (PSR sort gate)” value does the source give for “QVQLVVSGGGLVQAGGSLRLSCAASGSIFLVNVMGGDRQAPGKERELVAAITWSGGRTYYADSVKGRFTISRDNAKNTVYLPRNSRLPEDTAVYYCAAQTPRFVWQKGPLDSEDYWGQGTQVTVSS” here?
A: The value was “high polyreactivity”.

Q: Which “polyreactivity (PSR sort gate)” value does the source give for “QVQLVVSGGGLVQAGGSLRLSCAASGSLFTPYAMGWYRQAPGKERELVATISWSGGRTYYADSVKGRFTISRDNAKNPVYLQMNSLKPEDTAVYYCAARGYSSEYDYWGQGTQVTVSS” here?
A: The value was “high polyreactivity”.

Q: With “QVQLVVSGGGLVQAGGSLRLSCAASGSTFVSNAMGWYRQAPGQERELVAAITSGGSTDYADSVKGRCTISRDNAKNTVYVQMNSLQPEDTAVYYGAADPEWHSDQPRVGYVGYNYWGQGTQVNVSS” as the sequence, how does the “polyreactivity (PSR sort gate)” value read?
A: Its value is “low polyreactivity”.

Q: Which “polyreactivity (PSR sort gate)” value does the source give for “QVQLVVSGGGLVQAGGSLRLSCAASGYIFDYNAMGWYIQSPGKERELVAAINWSGGSTYYADSVKGRFTISRDNAKNTVYLQMNSLKPEDTAVYYCNKLIYGIYYPERYAYDYWGQGTQVTVSS” here?
A: The value was “low polyreactivity”.
